In US20120275997A1 (published 2012):
Residue numbers refer to the chain shown, from its start.

Tests used:
[1] = target: T1, recombinant large extracellular loop EC2 of human CD151 (human, UniProt P48509 113-221, limits assumed); assay: cross-blocking ELISA on recombinant EC2; competitor murine 214B2
T1 construct: also called recombinant EC2 loop; extracellular loop 2
T1 sequence (looked up): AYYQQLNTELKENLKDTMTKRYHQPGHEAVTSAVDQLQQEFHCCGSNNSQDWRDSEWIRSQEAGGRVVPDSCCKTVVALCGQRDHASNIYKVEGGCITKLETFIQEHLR
Protocol: FIG. 18 illustrates the Cross blocking of the murine antibody […] by the chimeric […] and different variants of the humanized 214B2. The activity of the humanized variants of 214B2 (hz214B2) to cross block the parental antibody m214B2 was evaluated by ELISA using the recombinant extracellular loop 2 (EC2) of human antigen CD151. The activity of the humanized variants was compared to the chimeric 214B2.
The affinity of the humanized variants to the epitope of the parental antibody was evaluated by cross blocking the parental antibody with the humanized antibody. The parental antibody concentration was kept constant and the humanized antibody serial diluted. The chimeric antibody served as a positive control and as a reference in these experiments. The humanized antibodies were evaluated by there affinity in ELISA and flow cytometry assays. In the ELISA based assay the second extracellular domain (EC2) of the human CD151 was expressed recombinantly and purified by the six histidine tag. Purified EC2 protein was used to coated ELISA plates and binding of humanized anti-CD151 antibodies was measured indirectly by detecting the murine parental antibody with HRP conjugated anti-mouse IgG antibodies. Binding to CD151 of humanized anti-CD151 antibodies was evaluated by flow cytometry using the human prostate cancer cell line PC3. The affinity was determined by cross blocking the biotinylated parental murine anti-CD151 antibody. The biotinylated antibody was detected using fluorescein conjugated streptavidin. Affinity constant (Kd) was measured by BIACore analysis.

[2] = target: human CD151 protein (human) (UniProt P48509); assay: flow cytometry on A549 cells, antibody at 10 ug/ml
[3] = target: human CD151 protein (human) (UniProt P48509); assay: flow cytometry on NIH3T3-CD151 cells, antibody at 10 ug/ml
[4] = target: human CD151 protein (human) (UniProt P48509); assay: flow cytometry on DU145 cells, antibody at 10 ug/ml
[5] = target: human CD151 protein (human) (UniProt P48509); assay: flow cytometry on PC3 cells, undiluted hybridoma supernatant
[6] = target: human CD151 protein (human) (UniProt P48509); assay: flow cytometry on BxPC3 cells, antibody at 10 ug/ml
[7] = target: human CD151 protein (human) (UniProt P48509); assay: flow cytometry on PC3 cells
[8] = target: T1, recombinant large extracellular loop …; assay: competition ELISA on recombinant EC2; competitor murine 203B6 at 80 ng/ml, detected with anti-mouse IgG
Protocol: (§1) Cross-competition experiments were further performed by ELISA to evaluate the ability of the chimeric antibodies c214B2[IgG1] and c203B6[IgG1] to inhibit the binding of their corresponding murine forms to the recombinant EC2 loop. Briefly, 96-well ELISA plates were coated with recombinant EC2 at 5 μg/ml in PBS overnight at 4° C. Murine Mabs 203B6 and 214B2 at 80 ng/ml were further incubated in the absence or in the presence of increasing concentrations of their corresponding chimeric antibody forms, ranging from 0.01 to 20 μg/ml, for 1 h at 37° C. For control experiments, no murine antibody was added. Horseradish peroxidase-conjugated polyclonal goat anti-mouse IgG was added at a 1/5000 dilution in PBS and incubated for 1 h at 37° C. After incubation with the peroxidase substrate TMB for 10 min at room temperature, the reaction was stopped with 1 M sulfuric acid and the optical density at 450 nm was measured. […] IC₅₀ values, calculated by using the GraphPad Prism software, were 0.69 μg/ml and 0.71 μg/ml for c214B2[IgG1] and c203B6[IgG1], respectively.

[9] = target: T1, recombinant large extracellular loop …; assay: competition ELISA on recombinant EC2; competitor murine 214B2 at 80 ng/ml, detected with anti-mouse IgG
Protocol: as §1

Chain of human CD151 protein (human) (P48509 whole entry): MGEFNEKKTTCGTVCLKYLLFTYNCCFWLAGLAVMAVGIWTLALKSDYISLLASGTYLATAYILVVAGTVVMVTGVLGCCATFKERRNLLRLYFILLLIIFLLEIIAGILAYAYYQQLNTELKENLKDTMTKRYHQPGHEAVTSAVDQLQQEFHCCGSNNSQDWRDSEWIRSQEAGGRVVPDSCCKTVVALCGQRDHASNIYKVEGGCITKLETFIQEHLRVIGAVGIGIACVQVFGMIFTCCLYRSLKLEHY

B1: humanized antibody Hz214B2VLVar2VHVar3 (G1) (antibody, human IgG1, kappa, V domains shown)
VH: QVQLVQSGAEVKKPGASVKLSCKASGYTFTSSSMHWVRQAPGQGLEWMGEIHPNSGNTNNAQKFQGRATLTVDTSISTAYVELSRLRSDDTAVYYCARARSFYYAMDCWGQGTSVTVSS
VL: NIQMTQSPSSLSASVGDRVTITCRASENVGTYVNWYQQKPGKAPKLLIYGASNLQSGVPSRFSGSGSATDFTLTISSLQPEDFATYYCGQTYSFPYTFGQGTKLEIKR
notes: also called VH Var3 with VL Var2
binding result [1]: binds

B2: humanized antibody Hz214B2VLVar4VHVar4 (G1) (antibody, human IgG1, kappa, V domains shown)
VH: B1 VH with A61N, Q62E, Q65K
VL: B1 VL with Q3V, R24K, N34S, L54R, Q55Y, S56T, Y87H
notes: also called Hz214B2VHVar4VLVar4; Hz214B2VHVar4VLVar4 (G1)
binding result [1]: binds

B3: humanized antibody Hz214B2VLVar3VHVar3 (G1) (antibody, human IgG1, kappa, V domains shown)
VH: B1 VH
VL: B1 VL with Q3V, R24K, N34S, Q55Y, Y87H
notes: also called Hz214B2VHVar3VLVar3; Hz214B2VHVar3VLVar3 (G1)
binding result [1]: binds

B4: humanized antibody Hz214B2VLVar3VHVar2 (G1) (antibody, human IgG1, kappa, V domains shown)
VH: B1 VH with L20V, A68V, V81M
VL: B1 VL with Q3V, R24K, N34S, Q55Y, Y87H
notes: also called VH Var2 with VL Var3
binding result [1]: binds

B5: humanized antibody Hz214B2VLVar2VHVar2 (G1) (antibody, human IgG1, kappa, V domains shown)
VH: B1 VH with L20V, A68V, V81M
VL: B1 VL
notes: also called VH Var2 with VL Var2
binding result [1]: binds

B6: humanized 214B2, VL Var1 with VH Var3 (IgG1) (antibody, V domains shown)
VH: B1 VH
VL: B1 VL with N1D, V33L, N53S, A68G
notes: also called Hz214B2VLVar1 with Hz214B2VHVar3 (G1)
binding result [1]: binds

B7: humanized 214B2, VL Var1 with VH Var2 (IgG1) (antibody, V domains shown)
VH: B1 VH with L20V, A68V, V81M
VL: B1 VL with N1D, V33L, N53S, A68G
notes: also called Hz214B2VLVar1 with Hz214B2VHVar2 (G1)
binding result [1]: binds

B8: murine antibody 203B6 (antibody, mouse IgG1, V domains shown)
VH: EVKLVESGGGLVQPGGSLKLSCAASGFTFSTYTMSWVRQTPEKRLEWVAYISSGGGTTYYPDTVKGRFTISRDNARNTLYLQMNSLKSEDTAMYYCATPRIGTGFAYWGQGTLVTVSA
VL: DIVLSQSPASLALSLGQRATISCRASASVEYYGTSLMHWYQQKPGQPPKLLIYEASNVESGVPARFSGSGSGTDFSLNIHPVEEDDLAIYFCQQSRKAPYTFGGGTKLEIK
MFI [2]: 675 | MFI [3]: 540 | MFI [4]: 860 | MFI [5]: 975 | MFI [6]: 768

B9: chimeric antibody c203B6[IgG1] (antibody, V domains shown)
VH: B8 VH
VL: DIVLSQSPASLALSLGQRATISCRASASVEYYGTSLMHWYQQKPGQPPKLLIYEASNVESGVPARFSGSGSGTDFSLNIHPVEEDDLAIYFCQQSRKAPYTFGGGTKLEIKR
notes: Mouse variable domains fused to human IgG1 / Ckappa constant domains
antibody concentration at which the binding plateau was reached [7]: 5 µg/mL | IC50 [8]: 0.71 mg/L

B10: murine antibody 214B2 (antibody, mouse IgG1, V domains shown)
VH: QVQLQQPGSVLVRPGASVKLSCKASGYTFTSSSMHWAKQRPGQGLEWIGEIHPNSGNTNNNEKFKGKATLTVDTSSSTAYVDLSSLSSEDSAVYYCARARSFYYAMDCWGQGTSVTVSS
VL: NIVMTQSPKSMSMSVGERVTLSCKASENVGTYVSWYQQKPEQSPKLLIYGASNRYTGVPDRFTGSGSATDFTLTISSVQAEDLADYHCGQTYSFPYTFGGGTKLEIK
MFI [2]: 820 | MFI [3]: 748 | MFI [4]: 1330 | MFI [5]: 1000 | MFI [6]: 849

B11: chimeric antibody c214B2[IgG1] (antibody, V domains shown)
VH: B10 VH
VL: NIVMTQSPKSMSMSVGERVTLSCKASENVGTYVSWYQQKPEQSPKLLIYGASNRYTGVPDRFTGSGSATDFTLTISSVQAEDLADYHCGQTYSFPYTFGGGTKLEIKR
notes: Mouse variable domains fused to human IgG1 / Ckappa constant domains; also called chimeric 214B2; chimeric 241B2
IC50 [9]: 0.69 mg/L | antibody concentration at which the binding plateau was reached [7]: 2.5 µg/mL
